molecular target: recombinant PD-L1 extracellur domain protein (UniProt Q9NZQ7); test: ELISA on recombinant PD-L1 extracellular domain protein
Sequence (Q9NZQ7 19-238 limits assumed): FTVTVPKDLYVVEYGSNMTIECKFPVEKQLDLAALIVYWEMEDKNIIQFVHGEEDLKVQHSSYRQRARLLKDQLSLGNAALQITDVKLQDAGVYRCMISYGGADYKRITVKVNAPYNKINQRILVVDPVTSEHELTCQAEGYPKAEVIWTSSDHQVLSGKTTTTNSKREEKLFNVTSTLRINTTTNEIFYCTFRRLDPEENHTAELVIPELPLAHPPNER

First: HAC, high affinity PD-1 mutant (positive control)
Second: P048 (IgV domain of PD-1, Gene 048, on kappa chain, co-expressed with an empty IgG1 heavy chain) (from UniProt P01857 1-330)
The EC50 of the first is lower: less than 0.1 nM for the first, greater than 100 nM for the second. The first is the more potent here.

In the case of “P050 (IgV domain of PD-1, lower affinity L128R mutant, Gene 050, on kappa chain, co-expressed with an empty IgG1 heavy chain) (from UniProt P01857 1-330)”, the EC50 is reported as greater than 100 nM.

molecular target: recombinant CD47 extracellur domain protein (UniProt Q08722); test: ELISA on recombinant CD47 extracellular domain protein
Sequence (Q08722 19-139 limits assumed): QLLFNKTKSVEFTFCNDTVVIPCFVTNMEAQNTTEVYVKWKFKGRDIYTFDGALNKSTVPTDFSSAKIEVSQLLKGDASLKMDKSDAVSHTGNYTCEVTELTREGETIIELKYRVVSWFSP

Going from “CV1, high affinity SIRPa mutant (positive control)” to “S012 (binding domain of human SIRPa, Gene 012, on human kappa light chain, co-expressed with an empty IgG1 heavy chain) (from UniProt P01834 1-107; P01857 1-330)”, the EC50 rises from less than 0.1 nM to greater than 100 nM.

“S007 (binding domain of human SIRPa, Gene 007, on human kappa light chain, co-expressed with an empty IgG1 heavy chain) (from UniProt P01834 1-107; P01857 1-330)” gave an EC50 greater than 100 nM.

From patent US20210332135A1
